Assay results as given in the supplement of paper PMC6757056.
± gives the standard deviation of the averaged measurements.

B1: library; a variant is named by its letters at N, in order (parent)
chain: GCUGUCACCGAGAAACUGUGAAGUAUAUCUUAAACCUGGGCACUUAAAAGAUAUAUGGAGUUAGUAGUGCAACCUGCUCGGUCUGAUGAGUCCNNNNNNGGACGAAACAGC

Experiments:
[1] = variants of: B1; assay: normalized RNA/DNA level without ligand (relative to sTRSVctl = 100) (log10 (% of sTRSVctl)); HEK293T; ligand: cyclic di-GMP (c-di-GMP-II aptamer); higher = less ribozyme self-cleavage, higher mRNA level; settings: reporter: mCherry (pCS4076), ligand present: no
How it was run: (§1)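 Only sequences with at least 100 DNA reads were analyzed, from HEK293T cells transfected with 4 µg per 6-well well of ribozyme switch library plasmids 72 h before RNA extraction with EDTA. Any ligand was added 1 h before transfection. RNA level was defined as RNA over DNA reads, normalized to a spiked-in non-cleaving sequence or to the top sequences, then scaled and log-transformed. The top set was 25 sequences, and the scaling was ×100 followed by log10.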

[2] = variants of: B1; assay: normalized RNA/DNA level with ligand (relative to sTRSVctl = 100) (log10 (% of sTRSVctl)); HEK293T; ligand: cyclic di-GMP (c-di-GMP-II aptamer); ligand concentration (+) RNA-Seq: 1 mM; higher = less ribozyme self-cleavage, higher mRNA level; settings: reporter: mCherry (pCS4076), ligand present: yes
How it was run: as §1

Variant	normalized RNA/DNA level without ligand (log10) [1]	normalized RNA/DNA level with ligand (log10) [2]
GCUGUCACCGAGAAACUGUGAAGUAUAUCUUAAACCUGGGCACUUAAAAGAUAUAUGGAGUUAGUAGUGCAACCUGCUCGGUCUGAUGAGUCCGAGGCGGGACGAAACAGC	1.817 ± 0.018	1.9 ± 0.14
GCUGUCACCGAGAAACUGUGAAGUAUAUCUUAAACCUGGGCACUUAAAAGAUAUAUGGAGUUAGUAGUGCAACCUGCUCGGUCUGAUGAGUCCAGCAGGGGACGAAACAGC	1.822 ± 0.018	1.85 ± 0.1
GCUGUCACCGAGAAACUGUGAAGUAUAUCUUAAACCUGGGCACUUAAAAGAUAUAUGGAGUUAGUAGUGCAACCUGCUCGGUCUGAUGAGUCCUUCCCUGGACGAAACAGC	1.766 ± 0.012	1.89 ± 0.048
GCUGUCACCGAGAAACUGUGAAGUAUAUCUUAAACCUGGGCACUUAAAAGAUAUAUGGAGUUAGUAGUGCAACCUGCUCGGUCUGAUGAGUCCAUUUCGGGACGAAACAGC	1.66 ± 0.028	1.82 ± 0.09
GCUGUCACCGAGAAACUGUGAAGUAUAUCUUAAACCUGGGCACUUAAAAGAUAUAUGGAGUUAGUAGUGCAACCUGCUCGGUCUGAUGAGUCCAACGGGGGACGAAACAGC	1.51 ± 0.084	1.68 ± 0.098
GCUGUCACCGAGAAACUGUGAAGUAUAUCUUAAACCUGGGCACUUAAAAGAUAUAUGGAGUUAGUAGUGCAACCUGCUCGGUCUGAUGAGUCCAGGUACGGACGAAACAGC	1.67 ± 0.038	1.81 ± 0.077
GCUGUCACCGAGAAACUGUGAAGUAUAUCUUAAACCUGGGCACUUAAAAGAUAUAUGGAGUUAGUAGUGCAACCUGCUCGGUCUGAUGAGUCCCCGCGAGGACGAAACAGC	1.59 ± 0.053	1.76 ± 0.07
GCUGUCACCGAGAAACUGUGAAGUAUAUCUUAAACCUGGGCACUUAAAAGAUAUAUGGAGUUAGUAGUGCAACCUGCUCGGUCUGAUGAGUCCCUAUAGGGACGAAACAGC	1.679 ± 0.012	1.84 ± 0.15
GCUGUCACCGAGAAACUGUGAAGUAUAUCUUAAACCUGGGCACUUAAAAGAUAUAUGGAGUUAGUAGUGCAACCUGCUCGGUCUGAUGAGUCCGUAUGUGGACGAAACAGC	1.6045 ± 0.00047	1.77 ± 0.087
GCUGUCACCGAGAAACUGUGAAGUAUAUCUUAAACCUGGGCACUUAAAAGAUAUAUGGAGUUAGUAGUGCAACCUGCUCGGUCUGAUGAGUCCUCAUUGGGACGAAACAGC	1.617 ± 0.0034	1.82 ± 0.082
GCUGUCACCGAGAAACUGUGAAGUAUAUCUUAAACCUGGGCACUUAAAAGAUAUAUGGAGUUAGUAGUGCAACCUGCUCGGUCUGAUGAGUCCGUGCUUGGACGAAACAGC	1.71 ± 0.025	1.84 ± 0.14
GCUGUCACCGAGAAACUGUGAAGUAUAUCUUAAACCUGGGCACUUAAAAGAUAUAUGGAGUUAGUAGUGCAACCUGCUCGGUCUGAUGAGUCCCUCGCAGGACGAAACAGC	1.66 ± 0.047	1.81 ± 0.14
GCUGUCACCGAGAAACUGUGAAGUAUAUCUUAAACCUGGGCACUUAAAAGAUAUAUGGAGUUAGUAGUGCAACCUGCUCGGUCUGAUGAGUCCUCUUAUGGACGAAACAGC	1.683 ± 0.012	1.85 ± 0.14
GCUGUCACCGAGAAACUGUGAAGUAUAUCUUAAACCUGGGCACUUAAAAGAUAUAUGGAGUUAGUAGUGCAACCUGCUCGGUCUGAUGAGUCCCUCUUUGGACGAAACAGC	1.6 ± 0.071	1.76 ± 0.079
GCUGUCACCGAGAAACUGUGAAGUAUAUCUUAAACCUGGGCACUUAAAAGAUAUAUGGAGUUAGUAGUGCAACCUGCUCGGUCUGAUGAGUCCUCACUAGGACGAAACAGC	1.51 ± 0.022	1.73 ± 0.099
GCUGUCACCGAGAAACUGUGAAGUAUAUCUUAAACCUGGGCACUUAAAAGAUAUAUGGAGUUAGUAGUGCAACCUGCUCGGUCUGAUGAGUCCCAGGUCGGACGAAACAGC	1.76 ± 0.021	1.84 ± 0.094
GCUGUCACCGAGAAACUGUGAAGUAUAUCUUAAACCUGGGCACUUAAAAGAUAUAUGGAGUUAGUAGUGCAACCUGCUCGGUCUGAUGAGUCCGGUAAAGGACGAAACAGC	1.441 ± 0.0091	1.62 ± 0.13
GCUGUCACCGAGAAACUGUGAAGUAUAUCUUAAACCUGGGCACUUAAAAGAUAUAUGGAGUUAGUAGUGCAACCUGCUCGGUCUGAUGAGUCCAUGACGGGACGAAACAGC	1.59 ± 0.089	1.76 ± 0.086
GCUGUCACCGAGAAACUGUGAAGUAUAUCUUAAACCUGGGCACUUAAAAGAUAUAUGGAGUUAGUAGUGCAACCUGCUCGGUCUGAUGAGUCCCCCAGGGGACGAAACAGC	1.77 ± 0.025	1.89 ± 0.077
GCUGUCACCGAGAAACUGUGAAGUAUAUCUUAAACCUGGGCACUUAAAAGAUAUAUGGAGUUAGUAGUGCAACCUGCUCGGUCUGAUGAGUCCCGGGGUGGACGAAACAGC	1.72 ± 0.0034	1.83 ± 0.13
GCUGUCACCGAGAAACUGUGAAGUAUAUCUUAAACCUGGGCACUUAAAAGAUAUAUGGAGUUAGUAGUGCAACCUGCUCGGUCUGAUGAGUCCUAGGCGGGACGAAACAGC	1.768 ± 0.013	1.87 ± 0.12
GCUGUCACCGAGAAACUGUGAAGUAUAUCUUAAACCUGGGCACUUAAAAGAUAUAUGGAGUUAGUAGUGCAACCUGCUCGGUCUGAUGAGUCCAGUCUUGGACGAAACAGC	1.726 ± 0.0047	1.84 ± 0.11
GCUGUCACCGAGAAACUGUGAAGUAUAUCUUAAACCUGGGCACUUAAAAGAUAUAUGGAGUUAGUAGUGCAACCUGCUCGGUCUGAUGAGUCCCAUAAGGGACGAAACAGC	1.706 ± 0.013	1.82 ± 0.1
GCUGUCACCGAGAAACUGUGAAGUAUAUCUUAAACCUGGGCACUUAAAAGAUAUAUGGAGUUAGUAGUGCAACCUGCUCGGUCUGAUGAGUCCUAUCGCGGACGAAACAGC	1.76 ± 0.019	1.83 ± 0.15
GCUGUCACCGAGAAACUGUGAAGUAUAUCUUAAACCUGGGCACUUAAAAGAUAUAUGGAGUUAGUAGUGCAACCUGCUCGGUCUGAUGAGUCCUCCCUCGGACGAAACAGC	1.78 ± 0.038	1.89 ± 0.14
GCUGUCACCGAGAAACUGUGAAGUAUAUCUUAAACCUGGGCACUUAAAAGAUAUAUGGAGUUAGUAGUGCAACCUGCUCGGUCUGAUGAGUCCAUCAAUGGACGAAACAGC	1.64 ± 0.026	1.77 ± 0.15
